Data from patent US20190248902A1 (published 2019).

Target: T1, human ASGR-1 mutant construct H203 (human, UniProt P07306 1-291)
T1 construct: Arg/Glu scanning: non-arginine residues were changed to arginine; Transiently expressed on CHO-S cells
T1 sequence: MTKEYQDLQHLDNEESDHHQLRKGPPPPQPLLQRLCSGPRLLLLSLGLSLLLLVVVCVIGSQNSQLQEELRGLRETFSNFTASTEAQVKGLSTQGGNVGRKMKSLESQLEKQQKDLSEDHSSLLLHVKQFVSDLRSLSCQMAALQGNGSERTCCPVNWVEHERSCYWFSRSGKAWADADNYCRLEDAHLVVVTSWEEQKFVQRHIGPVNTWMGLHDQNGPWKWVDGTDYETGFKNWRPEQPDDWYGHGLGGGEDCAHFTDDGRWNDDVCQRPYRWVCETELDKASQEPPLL
Assay: FACS, transfected CHO-S cells, mAb 5 ug/ml
In short: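 Transiently transfected CHO-S cells expressing wild-type or mutant hASGR-1 incubated with antibody at 5 ug/ml, 1 h at 4 °C; bound antibody detected by Alexa Fluor 647 anti-Fc plus 7-AAD, by flow cytometry. Binding normalized to expression using an unaffected antibody (65C12), then to wild type; hits defined as >3× IQR above third quartile.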

B1: 6G7 (antibody, V domains shown)
VH: QVQLVESGGGVVQPGRSLRLSCAASGFTFSSYGMHWVRQTPGKGLEWVAIISYVGKNKYYADSVKGRFTISRDNSKNTLYLQMNSLRAEDTAVYYCARRGNSYGGYGMDVWGQGTTVTVSS
VL: DIQMTQSPSSRSASVGDRVTITCQASQDISNYLNWCQQKPGKALKLLIYDASTLETGVPSRFSGSGSGTDFTFTISSVQPEDIATYYCQQYDNVPITFGQGTRLEIK
notes: mAb
- FACS Binding Geomean: 15100

B2: 190F8 (antibody, V domains shown)
VH: QVQLVESGGGVVQPGRSLRLSCAASGFTFSTYGMHWVRQAPGKGLEWVAVIWYDGSNKNYADSVKGRFTISRDNSKNTLYLQMNSLRAEDTAVYYCARDQGVGYDGLDVWGQGTTVTVSS
VL: DIQMTQSPSSLSASVGDRVTITCRTSQGIGNYLAWFQQKPGKAPKSLLYKASSLQSGVPSKFSGSGSGTDFTLTISSLQPEDFATYYCQQYMTYPLTFGGGTKVEIK
notes: mAb
- FACS Binding Geomean: 15100

B3: 191G1 (antibody, V domains shown)
VH: QVQLVESGGGVVQPGRSLRLSCAASGFTFSSYGMHWVRQAPGKGLEWVAVIWYDGSNEHYADSVKGRFTISRDNSKNTLYLQMNSLRAEDTAVYYCARDRGVGYYGLDVWGQGTTVTVSS
VL: DIQMTQSPSSLSASVGDRVTITCRASQGISNYLAWFQQKPGKAPKSLIYAASSLQSGVPSKFSGSGSGTDFTLTISSLQPEDFATYYCQHYLTYPLTFGGGTKVEIK
notes: mAb
- FACS Binding Geomean: 10900

B4: 56E5 (antibody, V domains shown)
VH: QVQLVQSGAEVKKPGASVKVSCQASGYTFTGYHMHWVRQAPGQGLEWMGWINPNNNATNYAQKFQGRVTMTRDTSISTAYMELRRLRSDDTAVYHCARDGTSSFDYWGQGTLVTVSS
VL: DIQMTQSPSSVSASVGDRVTITCRASQGIRKWLAWYQQKPGKAPKLLIYAASSLQSGVPSRFSGSGSGTDFTLTISSLQPEDFATYYCQQANSFPFTFGPGTKVDIK
notes: mAb
- FACS Binding Geomean: 20300

B5: 72G9 (antibody, V domains shown)
VH: EVQLVESGGGLVKPGGSLRLSCAASGFTFSSYSMNWVRQAPGKGLEWVSSISGSSSYIYYADSVKGRFTISRDNAKNSLYLQMNSLRAEDTAVYFCARGGSRGFDPWGQGTLVTVSS
VL: DIQMTQSPSSLSASVGDRVTITCRASQSITSYLNWYQQKPGKAPKLLIYTASSLQSGVPSRFSGSGSGTDFTLTISSLQPEDFATYYCQQSHSFPFTFGPGTKVDIK
notes: mAb
- FACS Binding Geomean: 18800

B6: 184E7 (antibody, V domains shown)
VH: QVQLVQSGAEVKTPGASVKVSCRASGYTFTSYNMHWVRQVPGQGLEWMGWINPNNGGSNYTQKFQGRVTMTRDTSISTAYMELSRLRSDDTAVYYCARKFGDWGQGTLVTVSS
VL: DIQMTQSPSSRSASIGERVTITCRASQGISNYLAWIQQKPGTAPKSLIYAASSLQSGVSSRFSGSGFGTDFTITISSVQREDFATYYCQQYNGYPFTFGHGTKVDIK
notes: mAb
- FACS Binding Geomean: 18400

B7: 7E11 (antibody, V domains shown)
VH: QVQLVESGGGVVQPGRSLRLSCAASGFTFSSFGMHWVRQAPGKGLEWVAIIWHDGSNKYYADSVKGRFTISRDNSNNTLYLQMSSLRAEDTAVYYCARDLSMGGMDVWGQGTTVTVSS
VL: DIQMTQSPSSLSASVGDRVTIACRASQNIISYLNWYQQKPGKAPKFLIYTASSLQSGVPSRFSGSGSGTDFTLTISSLQPEDFAIYYCQQTYSTPLTFGGGTKVEIK
notes: mAb
- FACS Binding Geomean: 14700

B8: 22G5 (antibody, V domains shown)
VH: EVQLLESGGGLVQPGGSLRLSCAASGFTFSSYAMNWVRQAPGMGLEWVSVISRSGGYTYYADSVKGRFTISRDNSKNTLYLQMNSLRAEDTAVYYCASRLAVAGSEAFDIWGQGTLVTVSS
VL: DIQMTQSPSSLSASVGDRVTITCRASQNISSYLNWYQQKQGKAPKLLIYAASSLQNGVPSRFSGRGSGTDFTLTISSLQPEDFATYYCQQSYRTPLFTFGPGTKVDFK
notes: mAb
- FACS Binding Geomean: 15100

B9: 5E5 (antibody, V domains shown)
VH: QVQLVESGGGVVQPGRSLRLSCAASGFTFSNYVMHWVRQAPGKGLEWVAVIWYDGSNKYYADSVKGRFTISRDNSKNTLYLQMNSLRAEDTAVYYCTREVYSSGWYDYGMDVWGQGTTVTVSS
VL: DIQMTQSPSSLSASVGDRVTITCRASQGIRNDLGWYQQKPGKAPKRLIYAASSLQSGVPSRFSGSGSGTEFTLTISSLQPEDFATYYCLQHYSYPRTFGQGTKVEVK
notes: mAb
- FACS Binding Geomean: 12600

B10: 7G4 (antibody, V domains shown)
VH: QVQLVESGGGVVQPGRSLRLSCAASGFTFNNYVMHWVRQAPGKGLEWVAVIWYDGSNKYYADSVKGRFTISRDNSKNTLYLQMTSLRAEDTAVYYCAREKYSSNWYDYGMDVWGQGTTVTVSS
VL: DIQMTQSPSSLSASVGDRVTITCRASQGIRNDLGWYQQRPGKAPKRLIYAASSLQSGVPSRFSGSGSGTEFTLTISSLQPEDSATYYCLHQYSYPRTFGQGTKVEIK
notes: mAb
- FACS Binding Geomean: 18500

B11: 48B12 (antibody, V domains shown)
VH: EVQLLESGGGLVQPGGSLRLSCAASGFTFSSYAMNWVRQAPGKGLEWVSAISGRGGNTFYADSVKGRFTISRDNSKNTLYLQMNSLRAEDTAVYYCAKRETYNWNYEGFDYWGQGTLVTVSS
VL: SYELTQPPSVSVSPGQTARITCSGDALPKKYAYWYQQKSGQAPVLVIYEDSKRPSGIPERFSGSSSGTMATLTISGAQVEDEADYYCNSTDSSGNHVVFGGGTKLTVL
notes: mAb
- FACS Binding Geomean: 20500

B12: 194A4 (antibody, V domains shown)
VH: QVQLVQSGTEVKKPGASLKVSCKASGYTFTVYYLNWVRQAPGQGLEWMGWINPNSGGTNYAQKFQGRVTMTRDTSISTAYMELSRLRSDDTAVYYCARGYDILTGWGQGTLVTVSS
VL: EIVLTQSPGTLSLSPGERATLSCRASRGVSNIYLAWYQQKPGQAPRLLIYGASNRATGIPDRFSGSGSGTDFTLTISRLEPEDFAVYYCQHNDYSMFTFGPGTKVDIK
notes: mAb
- FACS Binding Geomean: 12100

B13: 4A2 (antibody, V domains shown)
VH: QVQLVQSGTEVKKPGASVKVSCKASGYTFTNYDINWVRQATGQGLEWMGWMHPNSGNTGYAQKFQGRVTLTRNTSISTAYMELSSLRSEDTAVYYCASSSGWYYFDYWGQGTLVTVSS
VL: DIVMTQSPDSLAVSLGERATINCKSSQSILHSSNNNNYLAWFQQKPGQPPKLLLYWASTRESGVPDRFSGSGSGTDFTLTISSLQPEDVAVYYCQQYYNTPVTFGPGTKVGIK
notes: mAb
- FACS Binding Geomean: 18900

B14: 25A4 (antibody, V domains shown)
VH: QVLLVQSGAEVKRPGASVKVSCKASGYTFTNYDINWVRQATGQGLEWMGWMYPNSGNTGYAQKFQGRVTMTRNTSISTAYMELSSLRSEDTAVYYCASSSGWYYFDYWGQGTLVTVSS
VL: DIVMTQFPDSLAVSLGERATIKCKSSQSVLYSSHNNNYLAWYQQKPGQPPKLLLYWASTRESGVPDRFSGSGSGTEFTLTISSLEAEDVAVYYCQQYYSTPPTFGQGTKVEIK
notes: mAb
- FACS Binding Geomean: 20000

B15: 26C4 (antibody, V domains shown)
VH: QVQLVQSGAEVKKPGASVKVSCKASGYTFTNYDINWVRQASGQGLEWMGWMNPNSGNTGYAQRFQGRVTMTRNTSINTAYMELSSLRSEDTAVYYCASSSGWYYFDYWGQGTLVTVSS
VL: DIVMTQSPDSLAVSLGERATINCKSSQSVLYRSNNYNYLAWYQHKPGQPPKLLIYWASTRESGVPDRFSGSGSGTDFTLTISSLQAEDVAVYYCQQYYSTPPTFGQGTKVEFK
notes: mAb
- FACS Binding Geomean: 13500

B16: 29H8 (antibody, V domains shown)
VH: QVQLVQSGAEVQKPGASVKVSCKASGYTFTNYDINWVRQATGQGLEWMGWMNPNSGNTGYAQRFQGRVTMTRNTSISAAYMELSSLRSEDTAVYYCASSSGWYYFDYWGQGTLVTVSS
VL: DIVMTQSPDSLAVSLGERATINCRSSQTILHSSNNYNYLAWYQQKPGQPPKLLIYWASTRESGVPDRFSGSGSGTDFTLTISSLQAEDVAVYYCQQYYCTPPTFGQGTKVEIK
notes: mAb
- FACS Binding Geomean: 13200
